Measurements reported in patent US5821048, “Methods, kits, and compositions for diagnosing papillomavirus infection” (President and Fellows of Harvard College, dated 1998).

T1: full length BPV-1 E2 protein, in vitro translated (bovine papillomavirus-1, 35S-methionine-labelled)
T1 chain: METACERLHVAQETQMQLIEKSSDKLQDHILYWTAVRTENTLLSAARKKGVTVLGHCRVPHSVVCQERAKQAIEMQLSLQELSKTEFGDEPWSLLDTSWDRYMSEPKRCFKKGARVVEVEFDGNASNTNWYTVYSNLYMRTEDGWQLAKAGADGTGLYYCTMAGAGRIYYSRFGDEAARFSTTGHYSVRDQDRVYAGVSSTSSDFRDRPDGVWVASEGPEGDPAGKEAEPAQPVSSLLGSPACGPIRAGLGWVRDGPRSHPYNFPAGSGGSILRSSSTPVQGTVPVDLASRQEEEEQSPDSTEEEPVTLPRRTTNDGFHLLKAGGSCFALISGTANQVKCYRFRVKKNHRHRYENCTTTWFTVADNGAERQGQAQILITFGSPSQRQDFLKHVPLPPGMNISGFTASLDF

T2: BPV-1 E2 (aa161-410) (bovine papillomavirus-1, 35S-methionine-labelled)
T2 chain: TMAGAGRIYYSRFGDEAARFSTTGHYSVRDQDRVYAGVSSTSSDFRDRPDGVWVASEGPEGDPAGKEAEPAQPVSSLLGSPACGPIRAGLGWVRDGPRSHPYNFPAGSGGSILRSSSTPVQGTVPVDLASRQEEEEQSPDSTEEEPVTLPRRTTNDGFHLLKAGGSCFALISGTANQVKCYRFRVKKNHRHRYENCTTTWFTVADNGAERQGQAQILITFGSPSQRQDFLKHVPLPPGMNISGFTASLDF

T3: BPV-1 E2 protein bearing a deletion of the amino terminal 52 amino acids (bovine papillomavirus-1, 35S-methionine-labelled)
T3 chain: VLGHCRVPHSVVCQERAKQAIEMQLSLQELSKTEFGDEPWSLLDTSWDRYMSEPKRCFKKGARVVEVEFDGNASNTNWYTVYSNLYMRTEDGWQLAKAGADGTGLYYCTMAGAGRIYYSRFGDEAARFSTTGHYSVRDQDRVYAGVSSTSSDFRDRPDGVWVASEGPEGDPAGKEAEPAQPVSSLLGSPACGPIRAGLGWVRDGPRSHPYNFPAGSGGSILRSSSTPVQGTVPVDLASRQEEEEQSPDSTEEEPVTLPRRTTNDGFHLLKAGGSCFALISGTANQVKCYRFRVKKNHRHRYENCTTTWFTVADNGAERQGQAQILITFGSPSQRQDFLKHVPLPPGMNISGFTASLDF


How the values were obtained:
[1] = target: T1, full length BPV-1 E2 protein, in vitro …; test: GST pull-down of in vitro translated 35S-E2
BPV-1 E2 (aa161-410) = target: T2, BPV-1 E2 (aa161-410); test: GST pull-down of in vitro translated 35S-E2 forms
[2] = target: T3, BPV-1 E2 protein bearing a deletion of …; test: GST pull-down of in vitro translated 35S-E2 forms

Binder | binding result [1] | binding result (BPV-1 E2 (aa161-410)) | binding result [2]
GST fusion protein containing BPV-1 E1 amino acids 1-128 (other) MANDKGSNWDSGLGCSYLLTEAECESDKENEEPGAGVELSVESDRYDSQDEDFVDNASVFQGNHLEVFQALEKKAGEEQILNLKRKVLGSSQNSSGSEASETPVKRRKSGAKRRLFAENEANRVLTPL | no binding |  | 
GST fusion protein containing amino acids 200-424 of SEQ ID NO:1 (BPV-1 E1) (other) AEVFFEASFELLKKQCSFLQMQKRSHEGGTCAVYLICFNTAKSRETVRNLMANTLNVREECLMLQPAKIRGLSAALFWFKSSLSPATLKHGALPEWIRAQTTLNESLQTEKFDFGTMVQWAYDHKYAEESKIAYEYALAAGSDSNARAFLATNSQAKHVKDCATMVRHYLRAETQALSMPAYIKARCKLATGEGSWKSILTFFNYQNIELITFINALKLWLKGIP | no binding |  | 
BPV-1 E1 (amino acids 1-222)-GST fusion protein (other) MANDKGSNWDSGLGCSYLLTEAECESDKENEEPGAGVELSVESDRYDSQDEDFVDNASVFQGNHLEVFQALEKKAGEEQILNLKRKVLGSSQNSSGSEASETPVKRRKSGAKRRLFAENEANRVLTPLQVQGEGEGRQELNEEQAISHLHLQLVKSKNATVFKLGLFKSLFLCSFHDITRLFKNDKTTNQQWVLAVFGLAEVFFEASFELLKKQCSFLQMQK |  | no binding | no binding
